# Test results as given in US9127040B2, “Regulation of sodium channels by PLUNC proteins” (The University of North Carolina at Chapel Hill, priority 2011, dated 2015).
# T1: α, β and γENaC subunits (Rattus norvegicus, UniProt P37089+P37090+P37091)
# T1 construct: expressed in transfected cells; host or cells: Xenopus oocytes (cRNA injection; with or without V5-SPLUNC1 and CAP2)
# T1 sequence (P37089 1-698): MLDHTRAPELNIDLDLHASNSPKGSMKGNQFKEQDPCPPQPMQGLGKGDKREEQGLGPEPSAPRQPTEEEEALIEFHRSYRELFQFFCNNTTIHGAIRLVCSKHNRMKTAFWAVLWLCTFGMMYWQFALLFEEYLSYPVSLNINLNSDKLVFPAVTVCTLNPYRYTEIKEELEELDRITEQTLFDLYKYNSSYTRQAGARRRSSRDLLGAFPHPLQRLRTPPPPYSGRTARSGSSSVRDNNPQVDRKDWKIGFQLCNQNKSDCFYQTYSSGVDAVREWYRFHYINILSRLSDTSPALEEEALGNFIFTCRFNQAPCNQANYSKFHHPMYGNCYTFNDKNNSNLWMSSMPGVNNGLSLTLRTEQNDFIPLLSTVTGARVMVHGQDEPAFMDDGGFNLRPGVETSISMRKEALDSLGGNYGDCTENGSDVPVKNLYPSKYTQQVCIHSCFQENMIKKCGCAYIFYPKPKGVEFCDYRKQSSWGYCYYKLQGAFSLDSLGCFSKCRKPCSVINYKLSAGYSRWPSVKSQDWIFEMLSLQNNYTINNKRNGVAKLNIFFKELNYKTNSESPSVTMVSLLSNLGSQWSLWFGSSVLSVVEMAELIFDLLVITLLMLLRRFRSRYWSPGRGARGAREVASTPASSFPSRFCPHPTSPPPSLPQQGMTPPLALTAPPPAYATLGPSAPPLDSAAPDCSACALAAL
# T1 sequence (P37090 1-638): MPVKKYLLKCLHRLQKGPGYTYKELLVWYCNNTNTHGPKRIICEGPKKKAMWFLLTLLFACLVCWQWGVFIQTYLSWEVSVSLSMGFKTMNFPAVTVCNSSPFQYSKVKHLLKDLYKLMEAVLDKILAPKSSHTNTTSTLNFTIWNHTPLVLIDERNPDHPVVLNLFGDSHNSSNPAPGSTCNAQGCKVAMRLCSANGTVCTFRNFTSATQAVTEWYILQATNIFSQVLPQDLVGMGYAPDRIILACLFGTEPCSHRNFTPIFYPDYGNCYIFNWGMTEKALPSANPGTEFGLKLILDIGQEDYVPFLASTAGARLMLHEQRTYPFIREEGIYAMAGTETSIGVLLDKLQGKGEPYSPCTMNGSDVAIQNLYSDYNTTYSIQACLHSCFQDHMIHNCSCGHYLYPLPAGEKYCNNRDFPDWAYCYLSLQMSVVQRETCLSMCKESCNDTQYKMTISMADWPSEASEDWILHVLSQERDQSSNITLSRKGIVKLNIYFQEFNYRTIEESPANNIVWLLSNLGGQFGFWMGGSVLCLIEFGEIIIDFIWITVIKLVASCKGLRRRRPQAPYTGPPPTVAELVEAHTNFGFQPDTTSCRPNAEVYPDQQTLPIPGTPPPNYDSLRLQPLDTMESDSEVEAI
# T1 sequence (P37091 1-650): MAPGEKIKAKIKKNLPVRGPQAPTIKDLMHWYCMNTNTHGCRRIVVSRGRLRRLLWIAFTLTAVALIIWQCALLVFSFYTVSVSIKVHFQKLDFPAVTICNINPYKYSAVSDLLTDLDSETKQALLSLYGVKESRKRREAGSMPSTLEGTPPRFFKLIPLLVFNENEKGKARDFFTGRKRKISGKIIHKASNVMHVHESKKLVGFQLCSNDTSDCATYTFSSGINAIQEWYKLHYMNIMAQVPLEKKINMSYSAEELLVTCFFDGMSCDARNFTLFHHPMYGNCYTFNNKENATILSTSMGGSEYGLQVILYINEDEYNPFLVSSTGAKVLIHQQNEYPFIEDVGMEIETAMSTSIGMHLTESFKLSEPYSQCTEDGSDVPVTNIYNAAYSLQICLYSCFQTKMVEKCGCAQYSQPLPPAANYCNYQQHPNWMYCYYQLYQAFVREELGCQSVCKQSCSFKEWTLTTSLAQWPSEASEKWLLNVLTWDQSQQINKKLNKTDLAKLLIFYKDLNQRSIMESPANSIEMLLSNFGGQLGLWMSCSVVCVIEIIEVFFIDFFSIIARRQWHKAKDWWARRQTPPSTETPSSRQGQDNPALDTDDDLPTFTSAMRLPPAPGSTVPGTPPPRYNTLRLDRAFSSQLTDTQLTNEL
# B1: SPLUNC1: human SPLUNC1 (SEQ ID NO:1), 256 amino acid secreted PLUNC family protein; rSPLUNC1 is the purified V5/6His-tagged recombinant form (protein, listed as Homo sapiens)
# chain: MFQTGGLIVFYGLLAQTMAQFGGLPVPLDQTLPLNVNPALPLSPTGLAGSLTNALSNGLLSGGLLGILENLPLLDILKPGGGTSGGLLGGLLGKVTSVIPGLNNIIDIKVTDPQLLELGLVQSPDGHRLYVTIPLGIKLQVNTPLVGASLLRLAVKLDITAEILAVRDKQERIHLVLGDCTHSPGSLQISLLDGLGPLPIQGLLDSLTGILNKVLPELVQGNVCPLVNEVLRGLDITLVHDIVNMLIHGLQFVIKV
# modifications: V5/6His tag in recombinant form
# notes: rSPLUNC1 is the purified V5/6His-tagged recombinant form
# Target: T1, α, β and γENaC subunits
# Assay: Co-immunoprecipitation of V5-tagged SPLUNC1 with HA-tagged ENaC subunits in Xenopus oocytes
# Assay type: binding
# Details: V5-tagged SPLUNC1, anti-HA immunoprecipitation
# Method: Xenopus oocytes were injected with either HA-N-Terminus or V5-C-Terminus (HA-NT/V5-CT) tagged subunits in combination with wild type (WT) untagged rat αβγENaC subunits (0.3 ng cRNA each) with or without V5-tagged SPLUNC1 and CAP2 (1 ng cRNA each). After 24 h, 40 eggs per experimental condition were lysed with buffer containing (in mM): 20 Tris, 50 NaCl, 50 NaF, 10 β-glycerophosphate, 5 Na4P2O7 pyrophosphate, 1 EDTA, pH 7.5 and protease inhibitors (complete, Roche), aprotinin (Sigma). Cell lysates were prepared by passing the eggs through a 27G1/2 needle twice and by centrifugation at 3,600 rpm for 10 minutes at 4° C. Supernatants were transferred to new tubes and samples were spun at 14,000 rpm for 20 minutes at 4° C. Supernatants were discarded and pellets were solubilized in (mM) 50 Tris, 100 NaCl, 0.1% Triton X-100, 0.1% NP-40, 20 NaF, 10 Na4P2O7, 10 EDTA+protease inhibitor cocktail (Sigma), pH 7.5. Total inputs were taken from whole cell samples representing 4% of total protein. Solubilized proteins were incubated with 50 μl of protein A and 5 μl of anti-HA antibody (Covance) overnight while tumbling at 4° C. Samples were washed three times with (mM) 150 NaCl 50 Tris pH 7.5 buffer. Laemmli buffer was added and samples were loaded on a 15% gradient Tris-glycine gel after incubation for 10 minutes at 96° C. […]
molecule,measurement,value
B1,binding to ENaC subunits (co-immunoprecipitation),bound to all three ENaC subunits
